Results from publication PMC3401385 (Cell Reports, 2012).
One block for each binder: values may come before it.

Experiments:
[1] = target: T1, eIF2β K2K3 (Saccharomyces cerevisiae, UniProt P09064); test: ITC
T1 chain: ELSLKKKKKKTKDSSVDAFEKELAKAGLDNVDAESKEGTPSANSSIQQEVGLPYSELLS

[2] = target: human eIF5-CTD (carboxyl-terminal domain of eukaryotic initiation factor 5), wild type (human, UniProt P55010 225-407); test: ITC
[3] = target: T2, eIF2 ternary complex (Saccharomyces cerevisiae, UniProt P20459)
T2 chain 1: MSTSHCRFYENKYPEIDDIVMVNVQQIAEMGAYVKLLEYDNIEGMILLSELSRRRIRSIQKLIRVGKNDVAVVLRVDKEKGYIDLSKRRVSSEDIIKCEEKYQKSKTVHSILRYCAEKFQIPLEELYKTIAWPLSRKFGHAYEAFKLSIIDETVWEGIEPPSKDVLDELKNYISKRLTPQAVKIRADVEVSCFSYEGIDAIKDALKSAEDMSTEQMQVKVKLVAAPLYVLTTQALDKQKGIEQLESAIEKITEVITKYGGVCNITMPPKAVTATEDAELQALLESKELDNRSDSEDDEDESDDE
T2 chain 2: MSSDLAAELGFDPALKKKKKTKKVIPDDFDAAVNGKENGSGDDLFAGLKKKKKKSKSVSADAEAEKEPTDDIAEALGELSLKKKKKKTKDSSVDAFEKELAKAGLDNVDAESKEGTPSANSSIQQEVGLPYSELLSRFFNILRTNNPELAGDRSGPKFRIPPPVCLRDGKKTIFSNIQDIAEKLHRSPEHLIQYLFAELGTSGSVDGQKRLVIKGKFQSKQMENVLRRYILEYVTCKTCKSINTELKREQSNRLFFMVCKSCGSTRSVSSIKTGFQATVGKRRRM
T2 chain 3: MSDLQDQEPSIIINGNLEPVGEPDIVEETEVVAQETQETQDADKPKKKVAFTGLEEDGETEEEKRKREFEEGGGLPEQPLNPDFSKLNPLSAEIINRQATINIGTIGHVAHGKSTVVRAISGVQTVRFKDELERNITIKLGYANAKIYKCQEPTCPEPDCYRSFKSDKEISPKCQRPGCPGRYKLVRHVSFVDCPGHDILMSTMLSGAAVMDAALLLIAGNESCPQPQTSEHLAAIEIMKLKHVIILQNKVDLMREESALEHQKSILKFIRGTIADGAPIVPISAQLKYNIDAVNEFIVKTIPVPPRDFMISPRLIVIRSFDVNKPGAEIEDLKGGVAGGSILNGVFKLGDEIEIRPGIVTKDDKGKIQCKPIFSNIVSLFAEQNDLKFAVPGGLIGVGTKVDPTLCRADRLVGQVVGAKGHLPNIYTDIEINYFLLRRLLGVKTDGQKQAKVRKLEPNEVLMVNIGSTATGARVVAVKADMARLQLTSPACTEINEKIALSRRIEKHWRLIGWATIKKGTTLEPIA

human eIF5-CTD (carboxyl-terminal domain of eukaryotic initiation factor 5), wild type, sequence (P55010 225-407): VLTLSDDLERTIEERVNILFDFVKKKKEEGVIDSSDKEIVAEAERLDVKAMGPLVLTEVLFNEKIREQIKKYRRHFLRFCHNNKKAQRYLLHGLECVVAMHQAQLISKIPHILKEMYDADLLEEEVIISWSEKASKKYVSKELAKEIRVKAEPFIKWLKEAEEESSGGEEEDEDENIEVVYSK

Kd [1]: ~4 µM
B1: eIF5 CTD (protein)
chain: VNSELTQLDEYGEWILEQAGEDKENLPSDVELYKKAAELDVLNDPKIGCVLAQCLFDEDIVNEIAEHNAFFTKILVTPEYEKNFMGGIERFLGLEHKDLIPLLPKILVQLYNNDIISEEEIMRFGTKSSKKFVPKEVSKKVRRAAKPFITWLETAESDDDEEDDE

Kd [2]: ~4 µM
B2: eIF2β-K2K3 (eIF2β residues 53-135, with the K2 and K3 lysine boxes) (domain or fragment, UniProt P20042 53-135, looked up)
chain: DLEADEEDTRKKDASDDLDDLNFFNQKKKKKKTKKIFDIDEAEEGVKDLKIESDVQEPTEPEDDLDIMLGNKKKKKKNVKFPD

Kd [3]: 0.1 µM
B3: eIF5 (protein)
chain: MSINICRDNHDPFYRYKMPPIQAKVEGRGNGIKTAVLNVADISHALNRPAPYIVKYFGFELGAQTSISVDKDRYLVNGVHEPAKLQDVLDGFINKFVLCGSCKNPETEIIITKDNDLVRDCKACGKRTPMDLRHKLSSFILKNPPDSVSGSKKKKKAATASANVRGGGLSISDIAQGKSQNAPSDGTGSSTPQHHDEDEDELSRQIKAAASTLEDIEVKDDEWAVDMSEEAIRARAKELEVNSELTQLDEYGEWILEQAGEDKENLPSDVELYKKAAELDVLNDPKIGCVLAQCLFDEDIVNEIAEHNAFFTKILVTPEYEKNFMGGIERFLGLEHKDLIPLLPKILVQLYNNDIISEEEIMRFGTKSSKKFVPKEVSKKVRRAAKPFITWLETAESDDDEEDDE
